Data on 13 molecules can be found in US12492252 (SHANDONG BOAN BIOTECHNOLOGY, dated 2025).

Test [1] concerns the target T1, human GPC3 on cells (HepG2 cells expressing full length human GPC3; GPC3-transfected HEK293T cells) (human, UniProt P51654 25-554).
T1 construct: whole, on cells; also called GPC3-expressing HepG2 tumor cells
Kind of test: flow cytometry on HepG2 cells. On the technique in general: In flow cytometry, cells or beads pass a laser one at a time.

For test [2], the target named is T2, full length human GPC3 His (human, UniProt P51654 25-559, limits assumed).
T2 construct: also called full length human GPC3 protein; not shown: His tag
The test is described as follows: SPR (Biacore T200), full length human GPC3 His immobilised, IgG1 in solution. A general note: In SPR one partner is held on a chip, and binding of the other changes the refractive index at the surface.

A further test concerns the target T3, human GPC3 protein (human, UniProt P51654 25-559).
T3 construct: also called GPC3 antigen; human GPC3 proteins
The test is described as follows: screening of recombinantly expressed rabbit clones (before the change to human constant regions).

Test [3] has as its target T4, C-terminal fragment of the full length human GPC3 protein (human, UniProt P51654 359-554).
T4 construct: domain: C-terminal subunit (C-terminal fragment); also called C-terminal of GPC3; 30-kDa C-terminal subunit
T4 sequence (looked up): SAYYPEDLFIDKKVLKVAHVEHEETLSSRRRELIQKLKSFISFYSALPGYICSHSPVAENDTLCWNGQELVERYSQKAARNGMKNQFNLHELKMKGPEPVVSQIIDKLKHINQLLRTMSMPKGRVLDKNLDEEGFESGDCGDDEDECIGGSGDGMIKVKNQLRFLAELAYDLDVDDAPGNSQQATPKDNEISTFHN
Kind of test: ELISA.

By EC50 is commonly meant the concentration that produces a half-maximal response. Lower therefore signals higher potency in that assay. By Kd is commonly meant the equilibrium constant for the complex coming apart. The low end stands for tighter binding, the high end for weaker binding. Broadly, the koff is the rate constant with which the complex falls apart.

B1: anti-human GPC3 IgG1 antibody clone 2 (antibody, V domains shown)
VH: CQSVEESGGRLVTPGTPLTLTCTVSGFSLSTYNMGWIRQAPGEGLEYIGTISSSTGNTYYATWAKGRFTISKTSSTTVDLKITNLTTEDTATYFCVRVNNMGDIWGPGTLVTVSL
VL: AIVMTQTPSSKSVAVGDTVTINCQASESVYKDNRLAWFQQKPGQAPKLLIYLASTLASGVPSRFKGSGSGTEFTLTISDVVCDDAATYYCGGYKDSLFDGFPFGGGTEVVVKR
Regarding B1, in test [1], a half-maximal effect (EC50) was put at 7.6 pM and the “HepG2 Cell binding (Fold ratio)” value came to 694 fold. In test [2], this molecule yielded a dissociation constant Kd of around 490 pM, a RuMax of 2 and a koff of 0.00039 s⁻¹.

B2: anti-human GPC3 IgG1 antibody clone 5 (antibody, V domains shown)
VH: CQSVEESGGRLVTPGTPLTLTCTVSGFSLSTYNMGWVRQAPGEGLEYIGTISSSTGNTYYATWAKGRFTISKTSSTTVDLKITNLTTEDTATYFCVRVNNMGDIWGPGTLVTVSL
VL: AIVMTQTPSSKSVAVGDTVTINCQASESVYKDNRLAWFQQKPGQPPKLLIYLASTLASGVPSRFKGSGSGTEFTLTISDVVCDDAATYYCGGYKDSLFDGFPFGGGTEVVVKR
As to B2, the binding result (in the test with human GPC3 protein; in test [3]) was “binds” in each case.

B3: anti-human GPC3 IgG1 antibody clone 122 (antibody)
heavy: not shown
light: DPVLTQTPSSVSAAVGGTVTINCQSSQNVYNNNRLAWYQQKPGQPPKLLIYFASKLASGVPSRFKGNGSGTQFTLTISGVQCDDAATYYCAGGYNSIVDNGFGGGTEVVVERTVAAPSVFIFPPSDEQLKSGTASVVCLLNNFYPREAKVQWKVDNALQSGNSQESVTEQDSKDSTYSLSSTLTLSKADYEKHKVYACEVTHQGLSSPVTKSFNRGECTS
As to B3, in test [1], the EC50 came to 5.3 pM and the “HepG2 Cell binding (Fold ratio)” value worked out at 129 fold. In test [2], this molecule had a Kd of 200 pM, a RuMax of 17.3 and an off-rate (koff) of 0.0018 s⁻¹.

B4: anti-human GPC3 IgG1 antibody clone 182 (antibody)
heavy: not shown
light: DPVLTQTPSSVSAAVGGTVTINCQSSQNVYNNNRLAWYQQKPGQPPKLLIYFASKLASGVPSRFKGNGSGTQFTLTISGVQCDDAATYYCAGGYNSIVDNGFGAGTEVVVKRTVAAPSVFIFPPSDEQLKSGTASVVCLLNNFYPREAKVQWKVDNALQSGNSQESVTEQDSKDSTYSLSSTLTLSKADYEKHKVYACEVTHQGLSSPVTKSFNRGECTS
In test [2], B4 yielded a Kd of 20 pM, a RuMax of 24.3 and a koff of 0.0019 s⁻¹.

B5: anti-human GPC3 IgG1 antibody clone 49 (antibody, V domains shown)
VH: CQSVEESGGRLVTPGTPLTLTCTVSGFSLSTYWMTWVRQAPGKGLEWIGIINPSGSAYYASWAKGRFTISKTSSATVDLKMTSLTAADTATYFCAGGGGMDPWGPGTLVTVSS
VL: DPVLTQTPSSVSAAVGGTVSISCQSSQSIVKNYLSWFQQKPGQPPKRLIYKASTLPSGVPSRFKGSGSGTEFTLTISDLECDDAATYYCAASYSDNIYVFGGGTEVVVKR
Consider B5, for which, in test [1], the response was half-maximal at 12 pM (EC50) and the “HepG2 Cell binding (Fold ratio)” value amounted to 115 fold. In test [2], the Kd is 900 pM, the RuMax amounted to 1.7 and the koff turned out to be 0.0017 s⁻¹.

B6: anti-human GPC3 IgG1 antibody clone 121 (antibody, V domains shown)
VH: CQSVEESGGRLVTPGTPLTLTCTVSGFSLSTYWMTWVRQAPGKGLEWIGIINPAGSAYYASWAKGRFTISKTSSATVDLKMTSLTAVDTATYFCAGGGGMDPWGPGTLVTVSS
VL: DPVLTQTPSSVSAAVGGTVTISCQSSQNIIKDYLSWFQQKPGQPPKRLIYKTSTLPSGVPSRFKGSGSGTEFTLTISDLECDDAATYYCAASYSGNIYVFGGGTEVVVKR
In the case of B6, in test [1], the EC50 stood at 6.1 pM and the “HepG2 Cell binding (Fold ratio)” value worked out at 74.6 fold. For the same molecule, in test [2], the affinity, expressed as Kd, was 500 pM; the RuMax was 2; the koff is 0.0015 s⁻¹.

B7: anti-human GPC3 IgG1 antibody clone 8 (antibody, V domains shown)
VH: CQSVEESGGRLVTPGTALTLTCTVSGFSLSTYWMTWVRQAPGKGLEWIGIINPGGSAYYASWAKGRFTISKTSSATVDLKMTSLTAADTATYFCAGGGGMDPWGPGTLVTVSS
VL: DPVLTQTPSSVSAAVGGTVSISCQSSQSIIKNYLSWFQHKPGQPPKRLIYRASTLPSGVPSRFEGSGSGTEFTLTISDLECDDAATYYCAASYSDNIYVFGGGTEVVVKR
With B7, in test [1], the EC50 was 12 pM and the “HepG2 Cell binding (Fold ratio)” value was found to be 79.5 fold. In test [2], this molecule had a Kd of 100 pM, a RuMax of 3.7 and a koff of 0.00042 s⁻¹.

B8: anti-human GPC3 IgG1 antibody clone 12 (antibody, V domains shown)
VH: CQSVEESGGRLVTPGTPLTLTCTVSGFSLSTYWMTWVRQAPGKGLEWIGIINPSGSAFYASWAKGRFTISKTSSATVDLKMTSLTAADTATYFCAGGGGMDPWGPGTLVTVSS
VL: DPVLTQTPSSVSAAVGGTVSISCQSSQSIVKNYLSWFQQKPGQPPKRLIYKASTLPSGVPSRFKGSGSGTEFTLTISDLECDDAATYYCAASYSDNIYVFGGGTEVVVKR
B8: in test [1], it took 14 pM to reach a half-maximal effect (EC50) and the “HepG2 Cell binding (Fold ratio)” value came to 125 fold. In test [2], this molecule registered a dissociation constant (Kd) of 600 pM, a RuMax of 1.4 and a koff of 0.0016 s⁻¹.

B9: anti-human GPC3 IgG1 antibody clone 22 (antibody, V domains shown)
VH: CQSVEESGGRLVTPGTPLTLTCTVSGFSLSTYWMTWVRQAPGKGLEWIGIINPTGRAYYASWAKGRFTISKTSSATVDLKMTSLTAADTATYFCAGGGGMDPWGPGTLVTVSS
VL: DPVLTQTPSSVSAAVGGTVTINCQSSQSVYSNYLSWFQKKPGQPPKRLIYKASTLVSGVPSRFVGSGSGTEFTLTISDLECDDAATYYCAASYSGNIYVFGGGTEVVVKR
Turning to B9, in test [1], it took 13 pM to reach a half-maximal effect (EC50) and the “HepG2 Cell binding (Fold ratio)” value came out at 121 fold. Besides, in test [2], the Kd came out at 1600 pM, the RuMax came to 2.9 and the off-rate (koff) was determined as 0.00052 s⁻¹.

B10: anti-human GPC3 IgG1 antibody clone 40 (antibody, V domains shown)
VH: CQSVEESGGRLVTPGTPLTLTCTVSGFSLSTYWMTWVRQAPGKGLEWIGIISPAGSAYYASWAKGRFTISKTSSATVDLKMTSLTTADTATYFCAGGGGMDPWGPGTLVTVSS
VL: DPVLTQTPSSVSAAVGGTVSISCQSSQSIVKNYLSWFQQKPGQPPKRLIYKASTLPSGVPSRFKGSGSGTEFTLTISDLECDDAATYYCAASYSDNIYVFGGGTEVVVKR
notes: also called parental clone 40; chimeric anti-GPC3 clone 40
As for B10, in test [1], the concentration giving a half-maximal response (EC50) came out at 13 pM and the “HepG2 Cell binding (Fold ratio)” value came to 104 fold. In test [2], binding was put at a Kd of 600 pM, the RuMax is 2.4 and the koff came out at 0.0018 s⁻¹.

B11: anti-human GPC3 IgG1 antibody clone 41 (antibody, V domains shown)
VH: CQSVEESGGRLVTPGTALTLTCTVSGFSLSTYWMTWVRQAPGKGLEWIGIINPGGSAYYASWAKGRFTISKASSATVDLKMTSLTAADTATYFCAGGGGMDPWGPGTLVTVSS
VL: DPVLTQTPSSVSAAVGGTVSISCQSSQSIIKNYLSWFQHKPGQPPKRLIYRASTLPSGVPSRFEGSGSGTEFTLTINDLECDDAATYYCAASYSDNIYVFGGGTEVVVKR
For B11, in test [1], the EC50 worked out at 14 pM and the “HepG2 Cell binding (Fold ratio)” value was 116 fold. In test [2], this molecule came in with a dissociation constant (Kd) of 1300 pM, a RuMax of 1.49 and a koff of 0.0032 s⁻¹.

B12: anti-human GPC3 IgG1 antibody clone 17 (antibody, V domains shown)
VH: CQSVEESGGRLVTPGTPLTLTCTVSGFSLSTYDMSWVRQAPGKGLEYIGWINSGGSPYYARWAKGRFTISKTSSTTVDLKMTSPTTEDTATYFCARHRSGYYGDIWGPGTLVTVSL
VL: DPVLTQTPSSVSAAVGDTVSINCQSSQNVYKNRLAWYQQKPGQPPKLLIYGASTLASGVPSRFKGSGSGTQFTLTISDLECDDAATYYCAGGYSTIVDNTFGGGTEVVVKR
B12: in test [1], the response was half-maximal at 43 pM (EC50) and the “HepG2 Cell binding (Fold ratio)” value turned out to be 39.9 fold. In test [2], this molecule gave a dissociation constant Kd of 200 pM, a RuMax of 10.7 and a koff of 0.0037 s⁻¹.

B13: anti-human GPC3 IgG1 antibody clone 74 (antibody, V domains shown)
VH: QCQSVEESGGRLVTPGTPLTLTYTVSGFSLNNYDMSWVRQAPGKGLQYIGWINSGGTAYYASWAKGRFTISKTSSTTVDLKMTSPTTEDTATYFCARHRYGYYGDIWGPGTLVTVSL
VL: DPVLTQTPSSVSAAVGGTVTINCQSSQNVYNNNRLAWYQQKLGQPPKLLIYFASKLASGVPSRFSGSGSGTQFTLTISGVQCDDAATYYCAGGYNTIVDNGFGGGTEVVVKR
With B13, in test [1], the EC50 worked out at 4.2 pM and the “HepG2 Cell binding (Fold ratio)” value amounted to 143 fold. Moreover, in test [2], binding was characterised by a dissociation constant (Kd) of 20 pM, the RuMax was 24.3 and the dissociation rate constant (koff) is 0.00034 s⁻¹.
